Measurements published in patent US20240270806A1.

Target: Human IL-12 receptor (human IL-12Rb1 and IL-12Rb2) (human) (UniProt P42701)
Sequence (Q99665 24-862, chain 2 of 2, other chains not shown): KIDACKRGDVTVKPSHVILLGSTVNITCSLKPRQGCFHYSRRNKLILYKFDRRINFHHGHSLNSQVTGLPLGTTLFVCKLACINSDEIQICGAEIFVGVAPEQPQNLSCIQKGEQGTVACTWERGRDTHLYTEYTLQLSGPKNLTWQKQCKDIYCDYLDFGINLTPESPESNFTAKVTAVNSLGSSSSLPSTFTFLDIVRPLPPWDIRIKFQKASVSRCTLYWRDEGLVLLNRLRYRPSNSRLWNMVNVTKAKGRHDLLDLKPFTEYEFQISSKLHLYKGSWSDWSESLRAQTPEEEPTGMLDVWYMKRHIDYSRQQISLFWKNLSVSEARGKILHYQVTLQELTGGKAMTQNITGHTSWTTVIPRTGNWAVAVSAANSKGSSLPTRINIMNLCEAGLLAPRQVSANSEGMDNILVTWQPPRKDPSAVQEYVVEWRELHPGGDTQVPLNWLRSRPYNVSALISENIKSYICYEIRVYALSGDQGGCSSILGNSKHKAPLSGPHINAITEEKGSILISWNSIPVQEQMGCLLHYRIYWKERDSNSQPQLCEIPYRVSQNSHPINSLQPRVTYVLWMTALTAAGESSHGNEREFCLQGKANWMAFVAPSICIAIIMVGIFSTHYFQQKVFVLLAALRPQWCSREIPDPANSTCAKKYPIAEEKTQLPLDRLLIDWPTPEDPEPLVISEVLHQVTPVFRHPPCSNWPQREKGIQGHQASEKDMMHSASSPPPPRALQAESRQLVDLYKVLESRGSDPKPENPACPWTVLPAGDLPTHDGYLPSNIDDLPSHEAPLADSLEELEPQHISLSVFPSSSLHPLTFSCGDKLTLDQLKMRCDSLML

Chain of rhIL-12 (P29460 23-328 limits assumed): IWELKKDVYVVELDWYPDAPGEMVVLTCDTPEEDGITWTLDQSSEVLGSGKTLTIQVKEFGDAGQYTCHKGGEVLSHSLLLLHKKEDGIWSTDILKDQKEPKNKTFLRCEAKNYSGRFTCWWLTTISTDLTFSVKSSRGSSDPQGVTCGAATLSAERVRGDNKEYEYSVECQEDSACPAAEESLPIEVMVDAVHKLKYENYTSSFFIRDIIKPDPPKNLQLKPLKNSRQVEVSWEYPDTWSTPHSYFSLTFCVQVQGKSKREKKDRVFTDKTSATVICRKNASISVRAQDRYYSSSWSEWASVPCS
Chain of rhIL-12 (P29459 23-219 limits assumed): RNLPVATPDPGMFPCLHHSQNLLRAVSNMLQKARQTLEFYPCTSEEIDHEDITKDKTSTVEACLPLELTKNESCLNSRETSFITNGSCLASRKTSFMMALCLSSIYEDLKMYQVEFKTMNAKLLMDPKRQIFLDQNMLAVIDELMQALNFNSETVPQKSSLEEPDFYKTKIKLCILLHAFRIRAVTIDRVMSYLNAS

Substance: rhIL-12 (from UniProt P29460 23-328; P29459 23-219) (ligand)
- EC50 (read off the curve), IL-12 luciferase reporter assay (+ Protease): 0.2 nM
- EC50 (read off the curve), IL-12 luciferase reporter assay (without protease): 0.2 nM
